Data on seven variants can be found in IntAct's records for PubMed 31515488.

The chains are these.
B1: Angiomotin (Homo sapiens), Q4VCS5 (parent)
chain: MRNSEEQPSGGTTVLQRLLQEQLRYGNPSENRSLLAIHQQATGNGPPFPSGSGNPGPQSDVLSPQDHHQQLVAHAARQEPQGQEIQSENLIMEKQLSPRMQNNEELPTYEEAKVQSQYFRGQQHASVGAAFYVTGVTNQKMRTEGRPSVQRLNPGKMHQDEGLRDLKQGHVRSLSERLMQMSLATSGVKAHPPVTSAPLSPPQPNDLYKNPTSSSEFYKAQGPLPNQHSLKGMEHRGPPPEYPFKGMPPQSVVCKPQEPGHFYSEHRLNQPGRTEGQLMRYQHPPEYGAARPAQDISLPLSARNSQPHSPTSSLTSGGSLPLLQSPPSTRLSPARHPLVPNQGDHSAHLPRPQQHFLPNQAHQGDHYRLSQPGLSQQQQQQQQQHHHHHHHQQQQQQQPQQQPGEAYSAMPRAQPSSASYQPVPADPFAIVSRAQQMVEILSDENRNLRQELEGCYEKVARLQKVETEIQRVSEAYENLVKSSSKREALEKAMRNKLEGEIRRMHDFNRDLRERLETANKQLAEKEYEGSEDTRKTISQLFAKNKESQREKEKLEAELATARSTNEDQRRHIEIRDQALSNAQAKVVKLEEELKKKQVYVDKVEKMQQALVQLQAACEKREQLEHRLRTRLERELESLRIQQRQGNCQPTNVSEYNAAALMELLREKEERILALEADMTKWEQKYLEENVMRHFALDAAATVAAQRDTTVISHSPNTSYDTALEARIQKEEEEILMANKRCLDMEGRIKTLHAQIIEKDAMIKVLQQRSRKEPSKTEQLSCMRPAKSLMSISNAGSGLLSHSSTLTGSPIMEEKRDDKSWKGSLGILLGGDYRAEYVPSTPSPVPPSTPLLSAHSKTGSRDCSTQTERGTESNKTAAVAPISVPAPVAAAATAAAITATAATITTTMVAAAPVAVAAAAAPAAAAAPSPATAAATAAAVSPAAAGQIPAAASVASAAAVAPSAAAAAAVQVAPAAPAPVPAPALVPVPAPAAAQASAPAQTQAPTSAPAVAPTPAPTPTPAVAQAEVPASPATGPGPHRLSIPSLTCNPDKTDGPVFHSNTLERKTPIQILGQEPDAEMVEYLI
B2: Histone-lysine N-methyltransferase SMYD1 (Homo sapiens), Q8NB12 (parent)
chain: MTIGRMENVEVFTAEGKGRGLKATKEFWAADIIFAERAYSAVVFDSLVNFVCHTCFKRQEKLHRCGQCKFAHYCDRTCQKDAWLNHKNECSAIKRYGKVPNENIRLAARIMWRVEREGTGLTEGCLVSVDDLQNHVEHFGEEEQKDLRVDVDTFLQYWPPQSQQFSMQYISHIFGVINCNGFTLSDQRGLQAVGVGIFPNLGLVNHDCWPNCTVIFNNGNHEAVKSMFHTQMRIELRALGKISEGEELTVSYIDFLNVSEERKRQLKKQYYFDCTCEHCQKKLKDDLFLGVKDNPKPSQEVVKEMIQFSKDTLEKIDKARSEGLYHEVVKLCRECLEKQEPVFADTNIYMLRMLSIVSEVLSYLQAFEEASFYARRMVDGYMKLYHPNNAQLGMAVMRAGLTNWHAGNIEVGHGMICKAYAILLVTHGPSHPITKDLEAMRVQTEMELRMFRQNEFMYYKMREAALNNQPMQVMAEPSNEPSPALFHKKQ
partner: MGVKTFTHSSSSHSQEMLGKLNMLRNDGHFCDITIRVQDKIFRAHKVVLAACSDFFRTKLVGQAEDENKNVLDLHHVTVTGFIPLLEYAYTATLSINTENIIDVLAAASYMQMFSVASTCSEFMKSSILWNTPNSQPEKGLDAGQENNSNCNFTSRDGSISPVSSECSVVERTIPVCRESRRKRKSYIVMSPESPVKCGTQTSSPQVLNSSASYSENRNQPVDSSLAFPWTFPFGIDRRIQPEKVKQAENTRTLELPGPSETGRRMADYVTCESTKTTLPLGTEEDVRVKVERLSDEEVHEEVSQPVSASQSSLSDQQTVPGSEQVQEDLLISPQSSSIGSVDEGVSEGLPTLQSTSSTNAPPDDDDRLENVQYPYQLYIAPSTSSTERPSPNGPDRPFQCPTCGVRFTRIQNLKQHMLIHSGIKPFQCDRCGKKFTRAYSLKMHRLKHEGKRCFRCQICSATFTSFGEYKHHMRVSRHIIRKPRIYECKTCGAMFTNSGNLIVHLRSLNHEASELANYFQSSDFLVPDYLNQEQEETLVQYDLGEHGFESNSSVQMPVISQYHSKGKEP
B3: E3 ubiquitin-protein ligase MARCHF5 (Homo sapiens), Q9NX47 (parent)
chain: MPDQALQQMLDRSCWVCFATDEDDRTAEWVRPCRCRGSTKWVHQACLQRWVDEKQRGNSTARVACPQCNAEYLIVFPKLGPVVYVLDLADRLISKACPFAAAGIMVGSIYWTAVTYGAVTVMQVVGHKEGLDVMERADPLFLLIGLPTIPVMLILGKMIRWEDYVLRLWRKYSNKLQILNSIFPGIGCPVPRIPAEANPLADHVSATRILCGALVFPTIATIVGKLMFSSVNSNLQRTILGGIAFVAIKGAFKVYFKQQQYLRQAHRKILNYPEQEEA
B4: Cyclin-D1-binding protein 1 (Homo sapiens), O95273 (parent)
chain: MASATAPAAAVPTLASPLEQLRHLAEELRLLLPRVRVGEAQETTEEFNREMFWRRLNEAAVTVSREATTLTIVFSQLPLPSPQETQKFCEQVHAAIKAFIAVYYLLPKDQGITLRKLVRGATLDIVDGMAQLMEVLSVTPTQSPENNDLISYNSVWVACQQMPQIPRDNKAAALLMLTKNVDFVKDAHEEMEQAVEECDPYSGLLNDTEENNSDNHNHEDDVLGFPSNQDLYWSEDDQELIIPCLALVRASKACLKKIRMLVAENGKKDQVAQLDDIVDISDEISPSVDDLALSIYPPMCHLTVRINSAKLVSVLKKALEITKASHVTPQPEDSWIPLLINAIDHCMNRIKELTQSELEL
partner: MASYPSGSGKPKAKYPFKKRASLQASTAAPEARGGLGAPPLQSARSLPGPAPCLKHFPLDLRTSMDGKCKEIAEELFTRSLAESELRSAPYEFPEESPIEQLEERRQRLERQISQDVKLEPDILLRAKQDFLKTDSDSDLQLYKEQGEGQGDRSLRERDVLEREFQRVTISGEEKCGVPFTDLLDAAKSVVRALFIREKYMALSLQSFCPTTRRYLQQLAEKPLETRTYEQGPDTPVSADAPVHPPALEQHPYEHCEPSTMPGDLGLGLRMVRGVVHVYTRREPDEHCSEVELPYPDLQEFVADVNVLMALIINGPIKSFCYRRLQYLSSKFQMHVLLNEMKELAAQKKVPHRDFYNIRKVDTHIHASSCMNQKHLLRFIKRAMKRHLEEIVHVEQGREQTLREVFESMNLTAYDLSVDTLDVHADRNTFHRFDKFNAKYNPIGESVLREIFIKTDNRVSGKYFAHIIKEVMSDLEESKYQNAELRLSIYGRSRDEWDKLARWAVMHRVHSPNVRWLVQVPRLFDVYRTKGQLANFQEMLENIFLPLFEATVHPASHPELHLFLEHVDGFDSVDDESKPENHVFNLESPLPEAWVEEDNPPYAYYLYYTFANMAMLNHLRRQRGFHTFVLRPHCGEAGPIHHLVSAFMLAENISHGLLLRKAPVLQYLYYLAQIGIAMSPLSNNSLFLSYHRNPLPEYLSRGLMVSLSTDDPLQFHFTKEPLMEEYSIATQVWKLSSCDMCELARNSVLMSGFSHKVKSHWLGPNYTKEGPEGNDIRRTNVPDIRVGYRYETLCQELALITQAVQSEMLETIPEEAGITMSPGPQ

The variants in the first assay derive from B1. The following applies: with maga4_human MAGEA4, P43358.
Chain of maga4_human MAGEA4, P43358 (P43358 whole entry): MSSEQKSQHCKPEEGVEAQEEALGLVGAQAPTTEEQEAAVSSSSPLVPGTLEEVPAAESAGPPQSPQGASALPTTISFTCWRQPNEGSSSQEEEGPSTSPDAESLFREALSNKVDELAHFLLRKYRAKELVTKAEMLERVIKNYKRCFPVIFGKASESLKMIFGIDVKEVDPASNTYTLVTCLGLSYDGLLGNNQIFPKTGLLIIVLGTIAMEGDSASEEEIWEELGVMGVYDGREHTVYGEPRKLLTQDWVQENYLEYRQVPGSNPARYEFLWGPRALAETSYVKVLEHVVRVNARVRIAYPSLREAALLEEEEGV
On to T899A, for which the “effect of a mutation on the interaction” value is reported as “with no effect”.

In another assay the parent is B2. Particulars: with zbt44_human ZBTB44, Q8NCP5.
Regarding MTIGRMENVEVFTAEGKGRGLKATKEFWAADIIFAERAYSAVVFDSLVNFVCHTCFKRQEKLHRCGQCKFAHYCDRTCQKDAWLNHKNECSAIKRYGKVPNENIRLAARIMWRVEREGTGLTEGCLVSVDDLQNHVEHFGEEEQKDLRVDVDTFLQYWPPQSQPFSMQYISHIFGVINCNGFTLSDQRGLQAVGVGIFPNLGLVNHDCWPNCTVIFNNGNHEAVKSMFHTQMRIELRALGKISEGEELTVSYIDFLNVSEERKRQLKKQYYFDCTCEHCQKKLKDDLFLGVKDNPKPSQEVVKEMIQFSKDTLEKIDKARSEGLYHEVVKLCRECLEKQEPVFADTNIYMLRMLSIVSEVLSYLQAFEEASFYARRMVDGYMKLYHPNNAQLGMAVMRAGLTNWHAGNIEVGHGMICKAYAILLVTHGPSHPITKDLEAMRVQTEMELRMFRQNEFMYYKMREAALNNQPMQVMAEPSNEPSPALFHKKQ [Q164P], the “effect of a mutation on the interaction” value is given as “with no effect”.
Same read-out and setting: the same measure for MTIGRMENVEVFTAEGKGRGLKATKEFWAADIIFAERAYSAVVFDSLVNFVCHTCFKRQEKLHRCGQCKFAHYCDRTCQKDAWLNHKNECSAIKRYGKVPNENIRLAARIMWRVEREGTGLTEGCLVSVDDLQNHVEHFGEEEQKDLRVDVDTFLQYWPPQSQQFSMQYISHIFGVINCNGFTLSDQRGLQAVGVGIFPNLGLVNHDCWPNCTVIFNNGNHEAVKSMFHTQMRIELRALGKISEGEELTVSYIDFLNVSEERKRQLKKQYYFDCTCEHCQKKLKDDLFLGVKDNPKPSQEVVKEMIQFSKDTLEKIDKARSEGLYHEVVKLCQECLEKQEPVFADTNIYMLRMLSIVSEVLSYLQAFEEASFYARRMVDGYMKLYHPNNAQLGMAVMRAGLTNWHAGNIEVGHGMICKAYAILLVTHGPSHPITKDLEAMRVQTEMELRMFRQNEFMYYKMREAALNNQPMQVMAEPSNEPSPALFHKKQ [R333Q]: “with no effect”.
Still for that read-out and setting: the same measure for MTIGRMENVEVFTAEGKGRGLKATKEFWAADIIFAERAYSAVVFDSLVNFVCHTCFKRQEKLHRCGQCKFAHYCDRTCQKDAWLNHKNECSAIKRYGKVPNENIRLAARIMWRVEREGTGLTEGCLVSVDDLQNHVEHFGEEEQKDLRVDVDTFLQYWPPQSQQFSMQYISHIFGVINCNGFTLSDQRGLQAVGVGIFPNLGLVNHDCWPNCTVIFNNGNHEAVKSMFHTQMRIELRALGKISEGEELTVSYIDFLNVSEERKRQLKKQYYFDCTCEHCQKKLKDDLFLGVKDNPKPSQEVVKEMIQFSKDTLEKIDKARSEGLYHEVVKLCRECLEKQEPVFADTNIYMLRMLSIVSEVLSYLQAFEEASFYARRMVDGYMKLYHPNNAQLGMAVMRAGLTNWHAGNIEVGHGMICKAYAILLVTLGPSHPITKDLEAMRVQTEMELRMFRQNEFMYYKMREAALNNQPMQVMAEPSNEPSPALFHKKQ [H427L]: “with no effect”.

The variants in the next assay derive from B3. The following applies: with ube2w_human UBE2W.
Turning to MPDQALQQMLDRSCWVCFATDEDDRTAEWVRPCRCRGSTKWVHQACLQRWVDEKQRGNSTARVACPQCNAEYLIVFPKLGPVVYVLDLADRLISKACPFAAAGIMVGSIYWTAVTYGAVTVMQVVGHKEGLDVMERADPLFLLIGLPTIPVMLILGKMIRWEDYVLRLWRKYSNKLQILNSIFPGIGCPVPRIPAEANPLANHVSATRILCGALVFPTIATIVGKLMFSSVNSNLQRTILGGIAFVAIKGAFKVYFKQQQYLRQAHRKILNYPEQEEA [D202N], the “effect of a mutation on the interaction” value is recorded as “with no effect”.
On to MPDQALQQMLDRSCWVCFAADEDDRTAEWVRPCRCRGSTKWVHQACLQRWVDEKQRGNSTARVACPQCNAEYLIVFPKLGPVVYVLDLADRLISKACPFAAAGIMVGSIYWTAVTYGAVTVMQVVGHKEGLDVMERADPLFLLIGLPTIPVMLILGKMIRWEDYVLRLWRKYSNKLQILNSIFPGIGCPVPRIPAEANPLADHVSATRILCGALVFPTIATIVGKLMFSSVNSNLQRTILGGIAFVAIKGAFKVYFKQQQYLRQAHRKILNYPEQEEA [T20A], for which the “effect of a mutation on the interaction” value was “with no effect”.

Another assay covers variants of B4. Particulars: with ampd2_human AMPD2, Q01433.
MASATAPAAAVPTLASPLEQLRHLAEELRLLLPRVRVGEAQETTEEFNREMFWRRLNEAAVTVSREATTLTIVFSQLPLPSPQETQKFCEQVHAAIKAFIAVYYLLPKDQGITLRKLVRGATLDIVDGMAQLMEVLSVTPTQSPENNDLISYNSVWVACQQMPQIPRDNKAAALLMLTKNVDFVKDAHEEMEQAVEECDPYSGLLNDTEENNSDNHNHEDDVLGFPSNQDLYWSEDDQELIIPCLALVRASKACLKKIRMLVAENGKKDQVAQLDDTVDISDEISPSVDDLALSIYPPMCHLTVRINSAKLVSVLKKALEITKASHVTPQPEDSWIPLLINAIDHCMNRIKELTQSELEL [I277T]: the “effect of a mutation on the interaction” value is given as “disrupting interaction strength”.
